Laboratory results reported in patent publication US20240059799A1 (Pfizer, published 2024).
Substitutions are numbered along the chain they refer to. Blank lines part the entries; values can stand above or below the binder they belong to.

What was measured:
recombinant human TL1A = target: T1, recombinant human TL1A (human, UniProt O95150 71-251); assay: SPR, antibody injected over captured biotinylated human TL1A
T1 construct: homotrimer; biotinylated for SPR capture; the ELISA paragraphs say only 'recombinant TL1A'; also called TNFSF15
T1 chain: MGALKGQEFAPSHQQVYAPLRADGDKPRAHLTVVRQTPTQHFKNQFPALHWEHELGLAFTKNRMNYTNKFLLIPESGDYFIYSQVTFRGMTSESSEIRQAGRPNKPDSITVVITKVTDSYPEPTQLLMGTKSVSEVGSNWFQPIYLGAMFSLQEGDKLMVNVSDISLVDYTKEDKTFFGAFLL
Method: An SPR assay was also used to determine whether the [xTL1A] bivalent antibody variants could bind recombinant human TL1A. […] A high concentration (1 μM) of [xTL1A] variant antibodies were injected in assay buffer (HBS-EP+, pH 7.4, Cytiva, product number BR100669).

human IL-12 = target: T2, human IL-12 (human, UniProt P29460 23-328; P29459 23-219); assay: SPR 37 C, antibody captured by anti-human Fc, cytokine injected
T2 construct: Heterodimer p40/p35; also called IL-12 Human
T2 sequence 1: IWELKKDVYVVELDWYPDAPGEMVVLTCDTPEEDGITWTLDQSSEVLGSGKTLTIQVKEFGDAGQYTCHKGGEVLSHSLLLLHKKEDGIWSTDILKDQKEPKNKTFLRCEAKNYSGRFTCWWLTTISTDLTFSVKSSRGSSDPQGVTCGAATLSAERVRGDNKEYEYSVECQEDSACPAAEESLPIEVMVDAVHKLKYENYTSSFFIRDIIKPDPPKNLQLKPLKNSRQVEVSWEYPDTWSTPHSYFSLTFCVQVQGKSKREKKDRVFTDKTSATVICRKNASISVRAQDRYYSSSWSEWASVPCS
T2 sequence 2: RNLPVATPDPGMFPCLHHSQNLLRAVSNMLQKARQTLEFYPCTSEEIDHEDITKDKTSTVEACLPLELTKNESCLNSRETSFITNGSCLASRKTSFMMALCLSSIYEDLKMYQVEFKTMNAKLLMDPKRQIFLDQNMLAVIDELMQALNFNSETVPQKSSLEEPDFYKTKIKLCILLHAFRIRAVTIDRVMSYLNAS
Method: (§1) For these analyses, kinetic assays were conducted at 37° C. using a collection rate of 10 Hz on a BIAcore™ T200 instrument (GE Healthcare). An anti-human IgG antibody (anti-human Fc, catalog number 10-005-098, Jackson ImmunoResearch) was amine coupled to all four flow cells of a carboxymethylated dextran coated sensor chip (GE Healthcare) using the manufacturer's recommended protocol.

cynomolgus monkey IL-12 = target: T3, cynomolgus monkey IL-12 (cynomolgus monkey); assay: as above
T3 construct: Heterodimer p40/p35; Whole entries as named; also called IL-12 Cyno
T3 chain 1: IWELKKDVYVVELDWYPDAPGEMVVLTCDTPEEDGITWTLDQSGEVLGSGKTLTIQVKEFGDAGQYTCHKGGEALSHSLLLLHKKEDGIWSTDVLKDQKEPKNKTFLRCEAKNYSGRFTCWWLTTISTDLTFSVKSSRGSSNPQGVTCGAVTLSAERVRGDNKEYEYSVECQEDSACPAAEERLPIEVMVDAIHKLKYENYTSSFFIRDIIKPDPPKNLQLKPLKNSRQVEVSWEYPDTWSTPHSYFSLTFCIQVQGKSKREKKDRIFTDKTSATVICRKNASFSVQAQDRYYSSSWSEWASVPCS
T3 chain 2: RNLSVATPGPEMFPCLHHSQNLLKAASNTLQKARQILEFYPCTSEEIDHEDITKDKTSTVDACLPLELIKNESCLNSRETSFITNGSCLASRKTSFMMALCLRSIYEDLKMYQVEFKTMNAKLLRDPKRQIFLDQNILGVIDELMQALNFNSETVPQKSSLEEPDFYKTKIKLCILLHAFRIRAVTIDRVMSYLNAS
Method: as §1

human IL-23 = target: T4, human IL-23 (human, UniProt P29460 23-328; Q9NPF7 20-189); assay: as above
T4 construct: Heterodimer p40/p19; Whole entries as named; also called IL-23 Human; recombinant human IL-23
T4 sequence 1: T2 sequence 1
T4 sequence 2: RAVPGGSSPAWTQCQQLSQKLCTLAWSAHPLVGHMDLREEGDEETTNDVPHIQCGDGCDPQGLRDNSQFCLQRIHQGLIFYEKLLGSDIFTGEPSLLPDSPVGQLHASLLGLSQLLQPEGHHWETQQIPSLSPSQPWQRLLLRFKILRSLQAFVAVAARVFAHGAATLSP
Method: as §1

cynomolgus monkey IL-23 = target: T5, cynomolgus monkey IL-23 (cynomolgus monkey, limits assumed); assay: as above
T5 construct: Heterodimer p40/p19; Whole entries as named; also called IL-23 Cyno
T5 chain 1: T3 chain 1
T5 chain 2: T4 sequence 2 with T12A, H75R, L131P
Method: as §1

- binding result (recombinant human TL1A): no binding (tested: 1 µM)
B1: [xTL1A]-0349 bivalent antibody (antibody, human IgG1, kappa, V domains shown)
VH: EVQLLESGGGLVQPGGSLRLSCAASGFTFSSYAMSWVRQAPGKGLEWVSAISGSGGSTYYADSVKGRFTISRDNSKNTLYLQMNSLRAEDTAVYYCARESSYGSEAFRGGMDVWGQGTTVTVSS
VL: DIQMTQSPSSLSASVGDRVTITCRASQSVSSYLAWYQQKPGKAPKLLIYDASNRATGVPSRFSGSGSGTDFTLTISSLQPEDFATYYCQQRSNWPWTFGQGTKVEIKR
notes: disabled (null) bivalent IgG1/kappa

- Kd (human IL-12): 0.156 nM
- Kd (cynomolgus monkey IL-12): 0.368 nM
- Kd (human IL-23): 0.16 nM
- Kd (cynomolgus monkey IL-23): 0.317 nM
B2: p40-0003 (antibody, human IgG1, kappa, V domains shown)
VH: EVQLVQSGAEVKKPGESLKISCKGSGYSFTTYWLGWVRQMPGKGLDWIGIMSPVDSDIRYSPSFQGQVTMSVDKSITTAYLQWNSLKASDTAMYYCARRRPGQGYFDFWGQGTLVTVSS
VL: DIQMTQSPSSLSASVGDRVTITCRASQGISSWLAWYQQKPEKAPKSLIYAASSLQSGVPSRFSGSGSGTDFTLTISSLQPEDFATYYCQQYNIYPYTFGQGTKLEIKR
notes: human IgG1 effector-function-minimized/kappa; also called anti-IL12p40 p40-0003 antibody; C230 (ustekinumab) variable regions
